Results from publication PMC12030614.
* marks the point of attachment. AMC = Cc1cc(=O)oc2cc(N*)ccc12

Tests used:
[1] = target: Triticain-α (Triticum aestivum L.)
[2] = target: Ta-P7 (Triticum aestivum L.)
[3] = target: Ta-V6 (Triticum aestivum L.)

- KM of Ac-PLVQ-AMC hydrolysis, pH 3.6, 37 °C [1]: 21.5 µM
- KM of Ac-PLVQ-AMC hydrolysis, pH 4.6, 37 °C [1]: 34.6 µM
- KM of Ac-PLVQ-AMC hydrolysis, pH 5.6, 37 °C [1]: 46 µM
- KM of Ac-PLVQ-AMC hydrolysis, pH 6.5, 37 °C [1]: 49.4 µM
- KM of Ac-PLVQ-AMC hydrolysis, pH 7.5, 37 °C [1]: 583 µM
- KM of Ac-PLVQ-AMC hydrolysis, pH 3.6, 37 °C [2]: 44.7 µM
- KM of Ac-PLVQ-AMC hydrolysis, pH 4.6, 37 °C [2]: 32.2 µM
- KM of Ac-PLVQ-AMC hydrolysis, pH 5.6, 37 °C [2]: 24.5 µM
- KM of Ac-PLVQ-AMC hydrolysis, pH 6.5, 37 °C [2]: 31.4 µM
- KM of Ac-PLVQ-AMC hydrolysis, pH 7.5, 37 °C [2]: 35.3 µM
- KM of Ac-PLVQ-AMC hydrolysis, pH 3.6, 37 °C [3]: 16.4 µM
- KM of Ac-PLVQ-AMC hydrolysis, pH 4.6, 37 °C [3]: 20.5 µM
- KM of Ac-PLVQ-AMC hydrolysis, pH 5.6, 37 °C [3]: 22.6 µM
- KM of Ac-PLVQ-AMC hydrolysis, pH 6.5, 37 °C [3]: 26.9 µM
- KM of Ac-PLVQ-AMC hydrolysis, pH 7.5, 37 °C [3]: 29.2 µM
B1: acetyl-Pro-Leu-Val-Gln-7-amino-4-methylcoumarin (peptide)
peptide: Ac-PLVQ-{AMC}
SMILES: CC(=O)N1CCC[C@H]1C(=O)N[C@@H](CC(C)C)C(=O)N[C@H](C(=O)N[C@@H](CCC(N)=O)C(=O)Nc1ccc2c(C)cc(=O)oc2c1)C(C)C
